Assay results from the supplement of paper PMC12764529.
± gives the half width of the 95% confidence interval.

Legend:
[1] = folding stability dG unfold from chymotrypsin proteolysis; higher = more stable
Procedure, shortened: (§1)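 Designed mini-proteins with no cysteine and under 80 residues were kept only if AlphaFold2 dimer inter-PAE was above 15. In a PA-tagged cDNA display construct, they were digested with trypsin and chymotrypsin and then sequenced. K50 was inferred by Bayesian fitting of counts, and unfolding free energy was derived per protease or combined against a sequence-predicted unfolded-state K50 and a shared folded-state K50.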

[2] = folding stability dG unfold from trypsin proteolysis; higher = more stable
Procedure, shortened: as §1

[3] = folding stability dG unfold (combined trypsin and chymotrypsin); higher = more stable
Procedure, shortened: as §1

| Sequence | folding stability dG unfold [1] | folding stability dG unfold [2] | folding stability dG unfold [3] |
| --- | --- | --- | --- |
| SAGGSAGGSAGGSKPNNFKNIPKPVFKFKITTTEWKKNKDGTWTPVSTSTAEVTVWSNTSAGGSAGGSAGGS [r4_288_TrMRF] | 4.29 ± 0.1 kcal/mol | 3.2 ± 0.11 kcal/mol | 3.88 ± 0.21 kcal/mol |
| SAGGSAGGSAGGSKTIEIELPGMSPEEIAAAIAEELGLDDVKITVERTEDGLLRVTIEVSAGGSAGGSAGGS [r4_408_TrROS_Hall] | 1.81 ± 0.049 kcal/mol | 1.57 ± 0.057 kcal/mol | 1.76 ± 0.057 kcal/mol |
| SAGGSAGGSAGGSKYEIEILKIEELEDDSYRITAKINIPEAGTTEEITLTVPKGVELKLSAGGSAGGSAGGS [r4_133_TrMRF] | 1.21 ± 0.062 kcal/mol | 1.21 ± 0.017 kcal/mol | 1.23 ± 0.072 kcal/mol |
| SAGGSAGGSAGGSLTFDGPDTKIEVYELDDDLLPVTIYTDSAPRTILVPPKEFLKLLASSAGGSAGGSAGGS [r4_346_TrMRF] | 0.449 ± 0.085 kcal/mol | 0.0915 ± 0.071 kcal/mol | 0.367 ± 0.089 kcal/mol |
| SAGGSAGGSAGGSMELKLKVVEKTETRSATPGEDEPLPGNSSVTYEGNTLTTTTLVLVPLSAGGSAGGSAGG [r7_506_JUSTAS] | -0.736 ± 0.44 kcal/mol | -0.728 ± 0.28 kcal/mol | -0.72 ± 0.34 kcal/mol |
| SAGGSAGGSAGGSMIVERKPAPGGPRVEITIEIPDPTSDVPIIKKLVAEVLEDGSIVKASAGGSAGGSAGGS [r4_448_JUSTAS] | -0.525 ± 0.27 kcal/mol | -0.193 ± 0.16 kcal/mol | -0.205 ± 0.21 kcal/mol |
| SAGGSAGGSAGGSMKIVEVELIEYDEETKEFVYVFRVRLEDGSERLIVITPDGEMRVVPSAGGSAGGSAGGS [r4_35_TrROS_Hall] | 3.481 ± 0.031 kcal/mol | 2.61 ± 0.064 kcal/mol | 3.26 ± 0.055 kcal/mol |
| SAGGSAGGSAGGSMKNVPVTVEGSSSVVPLPDGSPVTVTELTTTTLGENGEVSTSTTVVSSAGGSAGGSAGG [r11_817_JUSTAS] | 1.34 ± 0.039 kcal/mol | -0.614 ± 0.07 kcal/mol | 0.905 ± 0.083 kcal/mol |
| SAGGSAGGSAGGSMLKGKIISVDPKKGYAIIYIPGKKKLLIIKFDPDNTIVEIKEAPLSSAGGSAGGSAGGS [r4_192_TrMRF] | 2.21 ± 0.14 kcal/mol | 2.82 ± 0.35 kcal/mol | 2.44 ± 0.33 kcal/mol |
| SAGGSAGGSAGGSMPVKLDEIIDYDPKKKVLTVLLTHPDGSKSLVVVPGKSIEEIKEANSAGGSAGGSAGGS [r4_357_TrMRF] | 0.709 ± 0.029 kcal/mol | 0.314 ± 0.029 kcal/mol | 0.648 ± 0.098 kcal/mol |
| SAGGSAGGSAGGSMSVSSVGSSSGAGMIVKTTYFPGSGGTTVVLIEPASGVVLATTPVPGSAGGSAGGSAGG [r7_154_JUSTAS] | 0.272 ± 0.079 kcal/mol | 0.493 ± 0.04 kcal/mol | 0.374 ± 0.13 kcal/mol |
| SAGGSAGGSAGGSMTSIKITYPDGSTKSASVSVDPNTGKVTTTFTDYTLSPDAKFTTISSAGGSAGGSAGGS [r10_306_JUSTAS] | 0.202 ± 0.11 kcal/mol | 0.372 ± 0.027 kcal/mol | 0.325 ± 0.073 kcal/mol |
| SAGGSAGGSAGGSMVIRNENGYLIEVKTEVVVDEETKKKYVKTEIRIYKEGEEKELPEESAGGSAGGSAGGS [r4_48_TrROS_Hall] | 1.13 ± 0.1 kcal/mol | 0.369 ± 0.055 kcal/mol | 1 ± 0.22 kcal/mol |
| SAGGSAGGSAGGSMVLTTTVEETVVDENGVETKITVKTYKLPDSEITLVTFPDGTVTPESAGGSAGGSAGGS [r10_404_JUSTAS] | 0.462 ± 0.1 kcal/mol | 0.493 ± 0.023 kcal/mol | 0.493 ± 0.072 kcal/mol |
| SAGGSAGGSAGGSNIEVHYFPDGAIVMTIREPNGWYIKIVARIPPDGNIKITEIELFPMSAGGSAGGSAGGS [r4_246_TrROS] | 3.78 ± 0.11 kcal/mol | 3.24 ± 0.11 kcal/mol | 3.49 ± 0.2 kcal/mol |
| SAGGSAGGSAGGSNIPSDSTVTSKGSSDTTTSTYYNPETGTTLVTTTPPDGVPTTTTTASAGGSAGGSAGGS [r10_592_JUSTAS] | -0.398 ± 0.36 kcal/mol | 0.621 ± 0.059 kcal/mol | 0.159 ± 0.12 kcal/mol |
| SAGGSAGGSAGGSPEFKIVSVEYDPETGLVTLEIEREDGSTLRFVFDKDGKLVRVEELPSAGGSAGGSAGGS [r4_259_TrROS_Hall] | 4.56 ± 0.15 kcal/mol | 3.31 ± 0.22 kcal/mol | 4.44 ± 0.19 kcal/mol |
| SAGGSAGGSAGGSPKRVTMYFIIPFYILIPKEDADGNNEWVIIPITIIIKIEIELPPGDSAGGSAGGSAGGS [r4_326_TrROS] | 5.49 ± 0.14 kcal/mol | 4.5 ± 0.15 kcal/mol | 5.48 ± 0.19 kcal/mol |
